Each block holds one compound with its values, some of them ahead of it.
Assays:
GSK-3beta = GSK-3beta (Homo sapiens, UniProt P49841); details: cited from earlier work
CDK-5 = CDK-5 (Homo sapiens, UniProt Q00535); details: cited from earlier work
[1] = test system: BDTK promoter (CpG1.2-luciferase) in HEK 293 cells; test: CpG1.2-luciferase BDTK promoter reporter assay in HEK293 cells; type: cell-based, human; details: A-beta 1-42 0-30 μg/ml, 24 hours
Experimental: A luciferase assay was used to determine promoter activity. To conduct this assay, 1.2 kb and 0.6 kb promoter sequence were inserted into pGL3-control vector (Promega, named as CpG1.2 and CpG0.6, respectively). The luciferase constructs were co-transfected with reference reporter gene (thymidine kinase promoter TK-RL plasmid, Promega) into PC12 and HEK293 cells using lipofection method (GenePorter, Gene Therapy Systems, Inc.). At 48 hours after DNA transfection, each luciferase activity was measured using Dua1-luciferase kit (Promega). […] CpG1.2-luciferase vector was tested for its promoter activity by increasing dose of extracellular beta-amyloid peptide (A-beta) 1-42 (0-30 μg/ml) for 24 hours. CpG1.2 luciferase activities (PC12-CpG or HEK-CpG) are 8- to 10-fold higher than control activities (PC12-control or HEK293-control) without beta-amyloid stimulation.

BDTK [2] = target: T1, BDTK (Homo sapiens, UniProt Q5TCY1); test: BDTK-mediated tau phosphorylation in vitro; type: biochemical
T1 construct: made in house

BDTK [3] = target: T1, BDTK; test: BDTK phosphorylation (autophosphorylation) in vitro; type: biochemical
Experimental: Purified recombinant human tau (Calbiochem) was phosphorylated by purified BDTK(38-319) and BDTK(52-319) in vitro. Briefly, 1 μg of tau protein and 1 μg of BDTK mutants were incubated in buffer A (50 mM Tris-Cl, pH 7.5, 5mM Mg acetate, 1 mM EDTA, 1 mM DTT, 0.1 mM ATP, 2 μCi [γ-^32P]ATP) or buffer B (100 mM Mes-Na, pH 6.5, 5 mM Mg acetate, 1 mM EGTA, 1 mM DTT, 0.2 mM ATP, and 2 μCi[γ-^32P]ATP). The reaction was stopped at 30, 60, 120, and 180 minutes by addition of Laemmli sampling buffer. Samples were then subjected to SDS-PAGE and autoradiography.
An assay was conducted to identify promoters and inhibitors of BDTK activity. BDTK peptides may be used to inhibit BDTK activity. Two synthetic peptides (N21: […] (SEQ ID NO:21) and AA21: […]) (SEQ ID NO:22) are synthesized to test if N21 and A21, where conserved two glycine residues are substituted with alanine, has inhibitory effect of BDTK kinase activity in vitro. Increasing amounts of peptides (0-1 mM) were tested for BDTK and tau phosphorylation, in vitro. […] AA21 mutated peptide increased both BDTK (AA21-BDTK, from 30 to 300 μM) and tau phosphorylation (AA21-tau, from 30 μM to […]) in dose response manner.

T1 sequence (Q5TCY1 38-319): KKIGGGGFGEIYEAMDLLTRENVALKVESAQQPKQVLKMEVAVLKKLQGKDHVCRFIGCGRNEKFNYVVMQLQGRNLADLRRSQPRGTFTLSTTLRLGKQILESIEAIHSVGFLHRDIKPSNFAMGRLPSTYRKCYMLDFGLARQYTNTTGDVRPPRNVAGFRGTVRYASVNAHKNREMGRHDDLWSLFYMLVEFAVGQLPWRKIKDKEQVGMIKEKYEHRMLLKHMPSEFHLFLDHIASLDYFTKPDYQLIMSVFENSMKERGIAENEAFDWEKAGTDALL
Chain of GSK-3beta (P49841 whole entry, species assumed): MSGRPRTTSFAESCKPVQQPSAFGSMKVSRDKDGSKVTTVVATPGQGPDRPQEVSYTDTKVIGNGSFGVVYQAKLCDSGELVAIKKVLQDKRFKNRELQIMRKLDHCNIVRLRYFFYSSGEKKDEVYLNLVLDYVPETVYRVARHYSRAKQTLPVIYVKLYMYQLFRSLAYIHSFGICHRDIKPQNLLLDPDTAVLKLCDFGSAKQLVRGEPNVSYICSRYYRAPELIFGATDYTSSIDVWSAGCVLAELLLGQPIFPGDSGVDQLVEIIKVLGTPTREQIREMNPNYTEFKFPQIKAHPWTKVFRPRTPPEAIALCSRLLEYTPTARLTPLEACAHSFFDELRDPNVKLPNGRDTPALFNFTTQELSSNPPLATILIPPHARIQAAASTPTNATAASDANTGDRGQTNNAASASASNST
Chain of CDK-5 (Q00535 whole entry, species assumed): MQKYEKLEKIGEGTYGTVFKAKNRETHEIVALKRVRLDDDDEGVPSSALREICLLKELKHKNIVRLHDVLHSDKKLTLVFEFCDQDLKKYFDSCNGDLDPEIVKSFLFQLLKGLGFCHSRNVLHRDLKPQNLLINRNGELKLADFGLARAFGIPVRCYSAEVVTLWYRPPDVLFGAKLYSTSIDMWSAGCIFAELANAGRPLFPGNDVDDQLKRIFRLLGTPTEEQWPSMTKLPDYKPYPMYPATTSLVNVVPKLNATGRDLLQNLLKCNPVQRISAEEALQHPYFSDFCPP
Chain of CDK-5 (Q15078 whole entry partner, species assumed): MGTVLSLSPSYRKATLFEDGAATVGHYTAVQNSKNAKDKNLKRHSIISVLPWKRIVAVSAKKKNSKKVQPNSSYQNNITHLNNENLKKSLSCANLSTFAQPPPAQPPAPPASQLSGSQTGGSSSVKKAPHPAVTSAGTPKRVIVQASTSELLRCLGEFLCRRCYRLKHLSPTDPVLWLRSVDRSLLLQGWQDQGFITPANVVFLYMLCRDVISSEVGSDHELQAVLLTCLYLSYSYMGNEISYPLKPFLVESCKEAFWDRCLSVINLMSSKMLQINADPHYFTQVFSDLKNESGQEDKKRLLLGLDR

Compound: CC(C)[C@H](CO)Nc1nc(Nc2cccc(Cl)c2)c2ncn(C(C)C)c2n1 [puralanol A]
- IC50 (GSK-3beta): 13 µM
- IC50 (CDK-5): 0.075 µM

Compound: Beta-amyloid: extracellular beta-amyloid peptide (A-beta) 1-42
- effect on CpG1.2-luciferase activity [1]: weakly stimulated

- effect on tau phosphorylation (N21-tau) (BDTK [2]; peptide from 300 μM to 1 μM): partially inhibited
- inhibition of BDTK phosphorylation (BDTK [3]; peptide 100 μM-1 mM): up to 70%
Compound: KDRWKVVKKIGGGGFGEIYEA [N21]

- effect on tau phosphorylation (AA21-tau) (BDTK [2]; peptide from 30 μM to 1 μM, dose response manner): increased
- effect on BDTK phosphorylation (AA21-BDTK) (BDTK [3]; peptide from 30 to 300 μM, dose response manner): increased
Compound: KDRWKVWKKIAGAGFGEIYEA [AA21]
